Each block holds one binder with its values, some of them ahead of it.
How the values were obtained:
[1] = biological target: cation-independent mannose-6-phosphate receptor (CI-M6PR), as used in the in vitro receptor binding assay (ELISA); experiment: in vitro CI-M6PR binding assay
[2] = biological target: cation-independent mannose-6-phosphate receptor (CI-M6PR), as used in the in vitro receptor binding assay (ELISA); experiment: ELISA, CI-M6PR binding, detection with antibody to human Naglu
[3] = biological target: cation-independent mannose-6-phosphate receptor (CI-M6PR) on cells overexpressing CI-M6PR; experiment: cellular uptake assay on cells overexpressing CI-M6PR, intracellular Naglu activity read-out

B3: Naglu-SapDC fusion protein (produced in HT-1080 cells) (enzyme)
chain: DEAREAAAVRALVARLLGPGPAADFSVSVERALAAKPGLDTYSLGGGGAARVRVRGSTGVAAAAGLHRYLRDFCGCHVAWSGSQLRLPRPLPAVPGELTEATPNRYRYYQNVCTQSYSFVWWDWARWEREIDWMALNGINLALAWSGQEAIWQRVYLALGLTQAEINEFFTGPAFLAWGRMGNLHTWDGPLPPSWHIKQLYLQHRVLDQMRSFGMTPVLPAFAGHVPEAVTRVFPQVNVTKMGSWGHFNCSYSCSFLLAPEDPIFPIIGSLFLRELIKEFGTDHIYGADTFNEMQPPSSEPSYLAAATTAVYEAMTAVDTEAVWLLQGWLFQHQPQFWGPAQIRAVLGAVPRGRLLVLDLFAESQPVYTRTASFQGQPFIWCMLHNFGGNHGLFGALEAVNGGPEAARLFPNSTMVGTGMAPEGISQNEVVYSLMAELGWRKDPVPDLAAWVTSFAARRYGVSHPDAGAAWRLLLRSVYNCSGEACRGHNRSPLVRRPSLQMNTSIWYNRSDVFEAWRLLLTSAPSLATSPAFRYDLLDLTRQAVQELVSLYYEEARSAYLSKELASLLRAGGVLAYELLPALDEVLASDSRFLLGSWLEQARAAAVSEAEADFYEQNSRYQLTLWGPEGNILDYANKQLAGLVANYYTPRWRLFLEALVDSVAQGIPFQQHQFDKNVFQLEQAFVLSKQRYPSQPRGDTVDLAKKIFLKYYPRWVAGSWGAPGGGGGAAAAAGGGGGGAPGGGGGAAAAAGGGGGGAPGGGGGAAAAAGGGGGGAPDGGFCEVCKKLVGYLDRNLEKNSTKQEILAALEKGCSFLPDPYQKQCDQFVAEYEPVLIEILVEVMDPSFVCLKIGACPSAHKPLLGTEKCIWGPSYWCQNTETAAQCNAVEHCKRHVWN
modifications: N-linked glycosylation site in the SapDC part marked (N); M6P content 0.75 mol/mol (M6P/Protein)
Kd [1]: 2.9 nM | Kd [3]: 209 nM | Kd [2]: 5.5 nM

B4: Naglu-SapDC fusion protein produced in HT-1080 cells overexpressing GNPT (enzyme)
chain: B3 chain
modifications: increased M6P on N-linked glycans; M6P content 1.84 mol/mol (M6P/Protein)
Kd [1]: 0.23 nM | Kd [3]: 14.9 nM | fold higher affinity than Naglu-SapDC produced in cells expressing Naglu-SapDC alone [3]: 14 fold

Next, values leading:

Kd [1]: 2.5 nM | Kd [2]: 1.25 nM
B1: Naglu-CREG fusion protein (produced in HT-1080 cells) (enzyme)
chain: DEAREAAAVRALVARLLGPGPAADFSVSVERALAAKPGLDTYSLGGGGAARVRVRGSTGVAAAAGLHRYLRDFCGCHVAWSGSQLRLPRPLPAVPGELTEATPNRYRYYQNVCTQSYSFVWWDWARWEREIDWMALNGINLALAWSGQEAIWQRVYLALGLTQAEINEFFTGPAFLAWGRMGNLHTWDGPLPPSWHIKQLYLQHRVLDQMRSFGMTPVLPAFAGHVPEAVTRVFPQVNVTKMGSWGHFNCSYSCSFLLAPEDPIFPIIGSLFLRELIKEFGTDHIYGADTFNEMQPPSSEPSYLAAATTAVYEAMTAVDTEAVWLLQGWLFQHQPQFWGPAQIRAVLGAVPRGRLLVLDLFAESQPVYTRTASFQGQPFIWCMLHNFGGNHGLFGALEAVNGGPEAARLFPNSTMVGTGMAPEGISQNEVVYSLMAELGWRKDPVPDLAAWVTSFAARRYGVSHPDAGAAWRLLLRSVYNCSGEACRGHNRSPLVRRPSLQMNTSIWYNRSDVFEAWRLLLTSAPSLATSPAFRYDLLDLTRQAVQELVSLYYEEARSAYLSKELASLLRAGGVLAYELLPALDEVLASDSRFLLGSWLEQARAAAVSEAEADFYEQNSRYQLTLWGPEGNILDYANKQLAGLVANYYTPRWRLFLEALVDSVAQGIPFQQHQFDKNVFQLEQAFVLSKQRYPSQPRGDTVDLAKKIFLKYYPRWVAGSWGAPGGGGGAAAAAGGGGGGAPGGGGGAAAAAGGGGGGAPGGGGGAAAAAGGGGGGAPRGGRDHGDWDEASRLPPLPPREDAARVARFVTHVSDWGALATISTLEAVRGRPFADVLSLSDGPPGAGSGVPYFYLSPLQLSVSNLQENPYATLTMTLAQTNFCKKHGFPLCVHIMLSGTVTKVNETEMDIAKHSLFIRHPEMKTWPSSHNWFFAKLNITNIWVLDYFGGPKIVTPEEYYNVTVQ
modifications: N-linked glycosylation sites in the CREG part marked (N); binding is M6P-dependent

Kd [1]: 0.41 nM
B2: Naglu-CREG fusion protein produced in HT-1080 cells overexpressing GNPT (enzyme)
chain: B1 chain
modifications: increased M6P on N-linked glycans (co-expression with GNPT)

Reference: patent US20170232076A1
